As a reminder, the Km is the concentration of substrate that gives half-maximal velocity. As usually defined, the kcat/Km is the turnover number divided by the Michaelis constant.

Substrate in the series “purified protein”: CCO
Description: purified protein. To be noted: quinone analogue Q1 or Q2 100 uM, pH 6.0 phosphate, 30 °C, Triton X-100.

Substrate in series [1]: CC=O
Nature of the series: oxygen consumption (Clark electrode), oxidase activity of purified ADHa coupled to ADH-deficient Ga. diazotrophicus membranes. It is filed as biochemical, Gluconacetobacter diazotrophicus. To be noted: quinone analogue Q1 or Q2 100 uM, pH 6.0 phosphate, 30 °C, Triton X-100, text b13 calls the acetaldehyde constants of both assays the same, although the table prints 3.7 × 10^−4 for the dehydrogenase. The source says:
oxygen consumption (Clark electrode), oxidase activity of purified ADHa coupled to ADH-deficient Ga. diazotrophicus membranes on ADHa

B1: ADHa (Gluconacetobacter diazotrophicus PA1 5) (protein)
chain: ESEFGATGEAIIHADDHPGDWLTYGRTYSEQRYSPLDQINRSNVGNLKLAWYYDLDTNRGQEGTPLIVDGVMYATTNWSKMKALDAATGKLLWAYDPRVPGNIADKGCCDTVNRGAAYWNGKVYFGTFDGRLIALDAKTGKLVWSVNTIPADAALGHQRSYTVDGAPRIAKGRVIIGNGGSEFGARGFVSAFDAETGKLDWRFYTVPNAQNKPDNAPSDAVLMSKAYPTWSPTGAWTTQGGGGTVWDSIVYDPVTDLVYLGVGNGSPWNYKFRSDGKGDNLFLGSIVALKPETGEYVWHFQETPMDQWDYTSVQQIMTLDLPINGQTRHVIVHAPKNGFFYIIDAKTGEFLSGKNYVYVNWASGLDPKTGRPIYNPDALYTLNGKEWYGIPGDLGGHNFAAMAFSPRTGLVYIPAQQVPFLYTSQVGGFKPHPDSWNLGLDMNKVGVTDSPEAKQAFIKDLKGWIVAWDPVKQQEAFRVDHKGPWNGGIVATGGDLLFQGLANGEFHAYDATNGADLFHFAAQSGIIAPPVTYMANGKQYVAVEVGWGGIYPFFLGGLARTSGWTVNHSRVIAFSLDGAAKLPPQNDKGFLPVKPPAQFDGKRTDNGYFEFQTFCAACHGDNAEAGGVLPDLRWSGAIRHQDAFYNVVGRGALTAYGMDRFDASMKPEQIEDIRQFLIKRSNDTYQREVDARKNVDGIPAQ
notes: native, purified from membranes with Triton X-100; heterodimer ~72 kDa (S-I) and ~44 kDa (S-II); with Alcohol dehydrogenase (quinone), cytochrome c subunit
For the protein B1, in the series “purified protein”, the Km amounted to 76 µM and the kcat/Km was found to be 1.8e+09 M⁻¹ s⁻¹. Besides, in series [1], the Km was found to be 1100 µM and the kcat/Km turned out to be 1e+08 M⁻¹ s⁻¹.

These data come from PMC4307304, “The Oxidative Fermentation of Ethanol in Gluconacetobacter diazotrophicus Is a Two-Step Pathway Catalyzed by a Single Enzyme: Alcohol-Aldehyde Dehydrogenase (ADHa)” (International Journal of Molecular Sciences, 2015).
